Drawing on paper PMC9963377, this text covers stoichiometry N for one substance.

The target of this assay is tetrameric CDV attachment protein H-ectodomain (strain A75/17), with N-terminal tetrameric GCN4 motif (canine distemper virus (strain A75/17)). The assay is described as follows: cryo-EM structure.

Broadly, the stoichiometry N is the number of molecules, sites or subunits per partner or assembly. As for “tetrameric CDV attachment protein H-ectodomain (strain A75/17), with N-terminal tetrameric GCN4 motif (domain or fragment)”, the stoichiometry N was determined as 4.
